First the molecules themselves.
T1: human IL2v G4S avi his (P1AG0879) (human)
T1 chain: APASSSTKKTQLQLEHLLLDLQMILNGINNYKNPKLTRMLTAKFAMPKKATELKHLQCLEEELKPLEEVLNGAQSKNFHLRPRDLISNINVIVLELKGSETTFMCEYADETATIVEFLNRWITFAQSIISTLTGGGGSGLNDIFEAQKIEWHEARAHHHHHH

B1: P1AH4157 PD1-376_VL2_VH4 (antibody, V domains shown)
VH: EVQLLESGGGLVQPGGSLRLSCAASGFSFSSYTMSWVRQAPGKGLEWVSAISGGGRDIYYPDSVKGRFTISRDNSKNTLYLQMNSLRAEDTAVYYCVLLTGRVYFALDSWGQGTLVTVSS
VL: DIVMTQSPDSLAVSLGERATINCKASESVDTSDNSFIHWYQQKPGQSPKLLIYRASTLESGVPDRFSGSGSGTDFTLTISSLQAEDVAVYYCQQNYDVPWTFGQGTKVEIKR
B2: P1AI1648 PD1-376_VL2_VH4_I58L_D62E (antibody, V domains shown)
VH: EVQLLESGGGLVQPGGSLRLSCAASGFSFSSYTMSWVRQAPGKGLEWVSAISGGGRDLYYPESVKGRFTISRDNSKNTLYLQMNSLRAEDTAVYYCVLLTGRVYFALDSWGQGTLVTVSS
VL: DIVMTQSPDSLAVSLGERATINCKASESVDTSDNSFIHWYQQKPGQSPKLLIYRASTLESGVPDRFSGSGSGTDFTLTISSLQAEDVAVYYCQQNYDVPWTFGQGTKVEIKR
B3: P1AI1650 PD1-376_VL2_VH4_I58T_P61A (antibody, V domains shown)
VH: EVQLLESGGGLVQPGGSLRLSCAASGFSFSSYTMSWVRQAPGKGLEWVSAISGGGRDTYYADSVKGRFTISRDNSKNTLYLQMNSLRAEDTAVYYCVLLTGRVYFALDSWGQGTLVTVSS
VL: DIVMTQSPDSLAVSLGERATINCKASESVDTSDNSFIHWYQQKPGQSPKLLIYRASTLESGVPDRFSGSGSGTDFTLTISSLQAEDVAVYYCQQNYDVPWTFGQGTKVEIKR
B4: P1AI1649 PD1-376_VL2_VH4_I58T (antibody, V domains shown)
VH: EVQLLESGGGLVQPGGSLRLSCAASGFSFSSYTMSWVRQAPGKGLEWVSAISGGGRDTYYPDSVKGRFTISRDNSKNTLYLQMNSLRAEDTAVYYCVLLTGRVYFALDSWGQGTLVTVSS
VL: DIVMTQSPDSLAVSLGERATINCKASESVDTSDNSFIHWYQQKPGQSPKLLIYRASTLESGVPDRFSGSGSGTDFTLTISSLQAEDVAVYYCQQNYDVPWTFGQGTKVEIKR
B5: P1AI1652 PD1-376_VL2_VH4_Y60F_D62E (antibody, V domains shown)
VH: EVQLLESGGGLVQPGGSLRLSCAASGFSFSSYTMSWVRQAPGKGLEWVSAISGGGRDIYFPESVKGRFTISRDNSKNTLYLQMNSLRAEDTAVYYCVLLTGRVYFALDSWGQGTLVTVSS
VL: DIVMTQSPDSLAVSLGERATINCKASESVDTSDNSFIHWYQQKPGQSPKLLIYRASTLESGVPDRFSGSGSGTDFTLTISSLQAEDVAVYYCQQNYDVPWTFGQGTKVEIKR
B6: P1AI1651 PD1-376_VL2_VH4_P61A (antibody, V domains shown)
VH: EVQLLESGGGLVQPGGSLRLSCAASGFSFSSYTMSWVRQAPGKGLEWVSAISGGGRDIYYADSVKGRFTISRDNSKNTLYLQMNSLRAEDTAVYYCVLLTGRVYFALDSWGQGTLVTVSS
VL: DIVMTQSPDSLAVSLGERATINCKASESVDTSDNSFIHWYQQKPGQSPKLLIYRASTLESGVPDRFSGSGSGTDFTLTISSLQAEDVAVYYCQQNYDVPWTFGQGTKVEIKR
B7: P1AG9606 PD1 IgG-IL2v aIL2 MT204 scFv-PQARK (antibody)
chain 1: EVQLLESGGGLVQPGGSLRLSCAASGFSFSSYTMSWVRQAPGKGLEWVATISGGGRDIYYPDSVKGRFTISRDNSKNTLYLQMNSLRAEDTAVYYCVLLTGRVYFALDSWGQGTLVTVSSASTKGPSVFPLAPSSKSTSGGTAALGCLVKDYFPEPVTVSWNSGALTSGVHTFPAVLQSSGLYSLSSVVTVPSSSLGTQTYICNVNHKPSNTKVDKKVEPKSCDKTHTCPPCPAPEAAGGPSVFLFPPKPKDTLMISRTPEVTCVVVDVSHEDPEVKFNWYVDGVEVHNAKTKPREEQYNSTYRVVSVLTVLHQDWLNGKEYKCKVSNKALGAPIEKTISKAKGQPREPQVCTLPPSRDELTKNQVSLSCAVKGFYPSDIAVEWESNGQPENNYKTTPPVLDSDGSFFLVSKLTVDKSRWQQGNVFSCSVMHEALHNHYTQKSLSLSPG
chain 2: DIVMTQSPDSLAVSLGERATINCKASESVDTSDNSFIHWYQQKPGQSPKLLIYRSSTLESGVPDRFSGSGSGTDFTLTISSLQAEDVAVYYCQQNYDVPWTFGQGTKVEIKRTVAAPSVFIFPPSDEQLKSGTASVVCLLNNFYPREAKVQWKVDNALQSGNSQESVTEQDSKDSTYSLSSTLTLSKADYEKHKVYACEVTHQGLSSPVTKSFNRGEC
modifications: PD1-binding arm; immunoconjugate, knob chain SEQ59 carries masked IL2v
B8: P1AI0357 PD1-1030-VH_I58T (antibody, V domains shown)
VH: EVQLLESGGGLVQPGGSLRLSCAASGFSFSSYTMSWVRQAPGKGLEWVATISGGGRDTYYPDSVKGRFTISRDNSKNTLYLQMNSLRAEDTAVYYCVLLTGRVYFALDSWGQGTLVTVSS
VL: DIVMTQSPDSLAVSLGERATINCKASESVDTSDNSFIHWYQQKPGQSPKLLIYRSSTLESGVPDRFSGSGSGTDFTLTISSLQAEDVAVYYCQQNYDVPWTFGQGTKVEIKR
B9: P1AI0358 PD1-1030-VH_I58T_P61A (antibody, V domains shown)
VH: EVQLLESGGGLVQPGGSLRLSCAASGFSFSSYTMSWVRQAPGKGLEWVATISGGGRDTYYADSVKGRFTISRDNSKNTLYLQMNSLRAEDTAVYYCVLLTGRVYFALDSWGQGTLVTVSS
VL: DIVMTQSPDSLAVSLGERATINCKASESVDTSDNSFIHWYQQKPGQSPKLLIYRSSTLESGVPDRFSGSGSGTDFTLTISSLQAEDVAVYYCQQNYDVPWTFGQGTKVEIKR
B10: P1AI0360 PD1-1030-VH_Y60F_D62E (antibody, V domains shown)
VH: EVQLLESGGGLVQPGGSLRLSCAASGFSFSSYTMSWVRQAPGKGLEWVATISGGGRDIYFPESVKGRFTISRDNSKNTLYLQMNSLRAEDTAVYYCVLLTGRVYFALDSWGQGTLVTVSS
VL: DIVMTQSPDSLAVSLGERATINCKASESVDTSDNSFIHWYQQKPGQSPKLLIYRSSTLESGVPDRFSGSGSGTDFTLTISSLQAEDVAVYYCQQNYDVPWTFGQGTKVEIKR
B11: P1AI0359 PD1-1030-VH_P61A (antibody, V domains shown)
VH: EVQLLESGGGLVQPGGSLRLSCAASGFSFSSYTMSWVRQAPGKGLEWVATISGGGRDIYYADSVKGRFTISRDNSKNTLYLQMNSLRAEDTAVYYCVLLTGRVYFALDSWGQGTLVTVSS
VL: DIVMTQSPDSLAVSLGERATINCKASESVDTSDNSFIHWYQQKPGQSPKLLIYRSSTLESGVPDRFSGSGSGTDFTLTISSLQAEDVAVYYCQQNYDVPWTFGQGTKVEIKR
B12: P1AI0356 PD1-1030-VH_I58L_D62E (antibody, V domains shown)
VH: EVQLLESGGGLVQPGGSLRLSCAASGFSFSSYTMSWVRQAPGKGLEWVATISGGGRDLYYPESVKGRFTISRDNSKNTLYLQMNSLRAEDTAVYYCVLLTGRVYFALDSWGQGTLVTVSS
VL: DIVMTQSPDSLAVSLGERATINCKASESVDTSDNSFIHWYQQKPGQSPKLLIYRSSTLESGVPDRFSGSGSGTDFTLTISSLQAEDVAVYYCQQNYDVPWTFGQGTKVEIKR
B13: P1AA6888 one-shot humanized PD1-0103 (antibody)
chain 1: not shown
chain 2: DIVMTQSPDSLAVSLGERATINCKASESVDTSDNSFIHWYQQKPGQSPKLLIYRSSTLESGVPDRFSGSGSGTDFTLTISSLQAEDVAVYYCQQNYDVPWTFGQGTKVEIKRTVAAPSVFIFPPSDEQLKSGTASVVCLLNNFYPREAKVQWKVDNALQSGNSQESVTEQDSKDSTYSLSSTLTLSKADYEKHKVYACEVTHQGLSSPVTKSFNRGEC
B14: P1AH4160 PD1-376_VL7_VH1_2_4 (antibody, V domains shown)
VH: EVQLVESGGGLVQPGGSLRLSCAASGFTFSSYTMSWVRQAPGKGLEWVSAISGGGRDIYYPDSVKGRFTISRDNSKNTLYLQMNSLRAEDTAVYYCVLLTGRVYFALDSWGQGTLVTVSS
VL: DIVMTQSPDSLAVSLGERATINCKASESVDTSDNSFIHWYQQKPGQSPKLLIYRESTQESGVPDRFSGSGSGTDFTLTISSLQAEDVAVYYCQQNYDVPWTFGQGTKVEIKR
B15: P1AH4159 PD1-376_VL2_7_VH4 (antibody, V domains shown)
VH: EVQLLESGGGLVQPGGSLRLSCAASGFSFSSYTMSWVRQAPGKGLEWVSAISGGGRDIYYPDSVKGRFTISRDNSKNTLYLQMNSLRAEDTAVYYCVLLTGRVYFALDSWGQGTLVTVSS
VL: DIVMTQSPDSLAVSLGERATINCKASESVDTSDNSFIHWYQQKPGQSPKLLIYRASTQESGVPDRFSGSGSGTDFTLTISSLQAEDVAVYYCQQNYDVPWTFGQGTKVEIKR
B16: P1AH4158 PD1-376_VL7_VH4 (antibody, V domains shown)
VH: EVQLLESGGGLVQPGGSLRLSCAASGFSFSSYTMSWVRQAPGKGLEWVSAISGGGRDIYYPDSVKGRFTISRDNSKNTLYLQMNSLRAEDTAVYYCVLLTGRVYFALDSWGQGTLVTVSS
VL: DIVMTQSPDSLAVSLGERATINCKASESVDTSDNSFIHWYQQKPGQSPKLLIYRESTQESGVPDRFSGSGSGTDFTLTISSLQAEDVAVYYCQQNYDVPWTFGQGTKVEIKR
B17: P1AH4161 PD1-376_VL2_VH1_2_3_4 (antibody, V domains shown)
VH: EVQLVESGGGLVQPGGSLRLSCAASGFTFSSYAMSWVRQAPGKGLEWVSAISGGGRDIYYPDSVKGRFTISRDNSKNTLYLQMNSLRAEDTAVYYCVLLTGRVYFALDSWGQGTLVTVSS
VL: DIVMTQSPDSLAVSLGERATINCKASESVDTSDNSFIHWYQQKPGQSPKLLIYRASTLESGVPDRFSGSGSGTDFTLTISSLQAEDVAVYYCQQNYDVPWTFGQGTKVEIKR
B18: P1AF7506 OA MT204 IgG PG LALA (antibody, V domains shown)
VH: EVQLVESGGGLVQPGGSLRLSCAASGFTFSSYTLAWVRQAPGKGLEWVAAIDSSSYTYSPDTVRGRFTISRDNAKNSLYLQMNSLRAEDTAVYYCARDSNWDALDYWGQGTTVTVSS
VL: DIQMTQSPSSLSASVGDRVTITCKASQNVGTNVGWYQQKPGKAPKALIYSASFRYSGVPSRFSGSGSGTDFTLTISSLQPEDFATYYCQQYYTYPYTFGGGTKVEIKR

The first assay addresses huPD1-ECD_Fc-knob/hole (P1AD9704) (human). Put plainly: SPR, 25C. In general terms: SPR reads the build-up and loss of mass on a sensor chip optically.
As for B1, the Kd was 0.126 nM. As for B2, binding was characterised by a dissociation constant (Kd) of 0.144 nM. This Kd and that of the molecule before are within 1.5-fold of each other. Still for that read-out and setting: the figure for B3 is 0.127 nM; for B4 it is 0.111 nM; for B5 it is 0.162 nM. Take B6: binding was put at a Kd of 0.114 nM. This Kd and that of the molecule before are within 1.5-fold of each other.

Molecule B7 registered a Kd of 0.19 nM.

Another assay shares this target. Put plainly: SPR, 25C. The source holds these as a separate data set.
With B8, the Kd was found to be 0.2 nM.

As to B9, the Kd is 0.3 nM. Still for that read-out and setting: the figure for B10 is 0.3 nM. On the same count and under the same terms, as for B11, the figure is 0.2 nM; as for B12, 0.2 nM. Same read-out and setting: the figure for B13 is 0.3 nM.

The next assay has the same target. As to the kind of experiment: SPR, 25C. This is another data set of the same source.
In turn, B14 showed a Kd of 1.2 nM. For the molecule B1, binding was characterised by a dissociation constant (Kd) of 0.2 nM. The same measure, in the same setting: as for B15, the figure is 0.2 nM; as for B16, 1.5 nM; as for B17, 0.4 nM. B13 came in with a Kd of 0.2 nM. This Kd lies about 2-fold lower than the previous one.

Another assay addresses T1, human IL2v G4S avi his (P1AG0879). As to the kind of experiment: SPR, 25C.
For B18, the Kd came to 0.27 nM.

One may read the Kd as the concentration at which binding is half-saturated. A lower Kd goes with higher affinity.

These data come from US20260345804 (published 2026).
